US20160046707A1 (EISAI R AND D MANAGEMENT, published 2016)
Numbering of substitutions follows the chain as printed.

B1: mouse anti-human CCL20 monoclonal antibody 36F7C10 (antibody, V domains shown)
VH: QVQLQQPGAELVKPGASVKMSCKASGYTFTNYWMHWVKQRPGQGLEWIGVIDPSDSYTTYNQKFKGKATLTVDTSSSTAYMQLSSLTSEDSAVYYCTRGNYGVDYAMDYWGQGTSVTVSS
VL: DIQMTQSPASLSASVGETVTITCGASENIYGALNWYQRKQGKSPQLLIYGATNLADGMSSRFSGSGSGRQYSLKISSLHPDDVATYYCQNVLITPYTFGGGTKLEIK
notes: Mouse hybridoma antibody; also called MouseMAb; parental mouse clone 36F7C10
B2: humanized anti-human CCL20 antibody 36LC3/36HC2 (antibody, human IgG1, kappa, V domains shown)
VH: QVQLVQSGAEVKKPGASVKVSCKASGYTFTNYWMHWVRQAPGQGLEWMGVIDPSDSYTTYAQKFQGRVTMTVDTSTSTVYMELSSLRSEDTAVYYCARGNYGVDYAMDYWGQGTLVTVSS
VL: DIQMTQSPSSLSASVGDRVTITCRASENIYGALNWYQQKPGKAPKLLIYGATNLADGVPSRFSGSGSGRQYSLTISSLQPEDFATYYCQNVLITPYTFGGGTKLEIKR
notes: expressed in HEK293 cells; also called HC2/LC3; HC2LC3

Experiments:
[1] = biological target: T1, mouse CCL20-secreted alkaline phosphatase (SEAP) fusion (mouse, UniProt O89093 28-97); assay: ELISA on CCL20-SEAP, Abs 450; x axis 'ug/ml' in 4-fold steps down from 10, taken as the antibody concentration as in FIG. 11C
T1 construct: Expressed in HEK293E, used as culture supernatant; also called SEAP-tagged mouse CCL20; mCCL20; not shown: secreted alkaline phosphatase (SEAP), cDNA from pSEAP-Enhancer vector (Clontech)
T1 sequence: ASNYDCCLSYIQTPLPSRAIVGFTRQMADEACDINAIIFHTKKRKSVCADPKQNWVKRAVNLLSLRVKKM

[2] = biological target: T2, cynomolgus CCL20-secreted alkaline phosphatase (SEAP) fusion (cynomolgus monkey); assay: ELISA, serially diluted CCL20-SEAP captured by anti-alkaline phosphatase antibody, antibody at 1 µg/ml
T2 construct: also called cCCL20; cynomolgus CCL20-SEAP; not shown: the SEAP reporter (cDNA from Clontech pSEAP-Enhancer) and its junction to CCL20
T2 chain: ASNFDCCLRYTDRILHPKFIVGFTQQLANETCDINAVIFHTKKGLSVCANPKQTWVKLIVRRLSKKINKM
Experimental: (§1) To test whether the chimeric and humanized antibodies can bind to mouse, cynomolgus, or rhesus macaque CCL20 orthologs, we used ELISA assays as illustrated in FIG. 15. Recombinant secreted alkaline phosphatase (SEAP)-chemokine fusion proteins were engineered as described in Example 2, expressed and purified for all of the CCL20 orthologs tested. Nunc MaxiSorb flat-bottom black plates were coated with 1 μg/ml mouse anti-placental alkaline phosphatase antibody (Pierce, cat# MA1-19354) in 50 mM sodium bicarbonate, pH 9.4, overnight at 4° C. Plates were then blocked using 1× phosphate buffered saline with Tween-20 (PBST) with 5% bovine serum albumin (BSA) for 2 hours at room temperature. 20 nM SEAP-CCL20 fusion proteins were serially diluted 5-fold in Opti-MEM medium (Invitrogen). Chimeric and humanized (HC2/LC3 and HC2/LK3) antibodies were diluted to 1 μg/ml in 1×PBST with 5% BSA, added to the plates, and incubated for 1 hr at room temperature. The plates were then washed with 1×PBST with 5% BSA three times. […] QuantaBlu fluorescent HRP substrate (Pierce cat#15169) was added for detection of bound antibody by measuring fluorescence in a Molecular Devices M5 (Excitation 325 nm/Emission 420 nm) plate reader. […]

[3] = biological target: T3, human CCL20-secreted alkaline phosphatase (SEAP) fusion (human, UniProt P78556 27-96); assay: ELISA, serially diluted CCL20-SEAP captured by anti-alkaline phosphatase antibody, antibody at 1 µg/ml; human CCL20-SEAP
T3 construct: also called hCCL20; human CCL20-SEAP; not shown: secreted alkaline phosphatase (SEAP), cDNA from pSEAP-Enhancer vector (Clontech)
Experimental: as §1

[4] = biological target: T4, rhesus CCL20-secreted alkaline phosphatase (SEAP) fusion (rhesus monkey); assay: ELISA, serially diluted CCL20-SEAP captured by anti-alkaline phosphatase antibody, antibody at 1 µg/ml; rhesus CCL20-SEAP
T4 construct: also called rCCL20; rhesus CCL20-SEAP; not shown: the SEAP reporter (cDNA from Clontech pSEAP-Enhancer) and its junction to CCL20
T4 chain: T2 chain with I38V
Experimental: as §1

T3 sequence (P78556 27-96): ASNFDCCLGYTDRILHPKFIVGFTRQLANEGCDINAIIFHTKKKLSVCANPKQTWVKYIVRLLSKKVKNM

Row | Binder | binding result [1] | fold difference of EC50 versus human CCL20 [2] [fold] | EC50 [3] [nM] | EC50 [4] [nM]
1 | B1 | no binding (tested: 10 ug/ml) |  |  | 
2 | B2 |  | 5.4 | 0.062 | 0.101
